Tests used:
[1] = molecular target: KIR (KIR2D receptors; KIR2DL1 and 2/3) on the patients' NK cells; assay: receptor occupancy on patients' NK cells by flow cytometry after a single i.v. dose of 0.0003 mg/kg (AML dose-escalation trial)
[2] = molecular target: KIR (KIR2D receptors; KIR2DL1 and 2/3) on the patients' NK cells; assay: receptor occupancy on patients' NK cells by flow cytometry after a single i.v. dose of 0.003 mg/kg (AML dose-escalation trial)

KIR occupancy [1]: 50%
KIR occupancy [2]: 90%
Substance: fully human anti-KIR2DL1, 2 and 3 monoclonal antibody 1-7F9

— patent publication US20150376275A1
